# Data: patent publication US20180327500A1 (SYMPHOGEN A S, published 2018)
# T1: Mouse Blade 1-4
# T1 construct: human/mouse chimera on transfected HEK293 cells; also called AA 25-295
# T1 MET ECD-SV5-GPI fusion: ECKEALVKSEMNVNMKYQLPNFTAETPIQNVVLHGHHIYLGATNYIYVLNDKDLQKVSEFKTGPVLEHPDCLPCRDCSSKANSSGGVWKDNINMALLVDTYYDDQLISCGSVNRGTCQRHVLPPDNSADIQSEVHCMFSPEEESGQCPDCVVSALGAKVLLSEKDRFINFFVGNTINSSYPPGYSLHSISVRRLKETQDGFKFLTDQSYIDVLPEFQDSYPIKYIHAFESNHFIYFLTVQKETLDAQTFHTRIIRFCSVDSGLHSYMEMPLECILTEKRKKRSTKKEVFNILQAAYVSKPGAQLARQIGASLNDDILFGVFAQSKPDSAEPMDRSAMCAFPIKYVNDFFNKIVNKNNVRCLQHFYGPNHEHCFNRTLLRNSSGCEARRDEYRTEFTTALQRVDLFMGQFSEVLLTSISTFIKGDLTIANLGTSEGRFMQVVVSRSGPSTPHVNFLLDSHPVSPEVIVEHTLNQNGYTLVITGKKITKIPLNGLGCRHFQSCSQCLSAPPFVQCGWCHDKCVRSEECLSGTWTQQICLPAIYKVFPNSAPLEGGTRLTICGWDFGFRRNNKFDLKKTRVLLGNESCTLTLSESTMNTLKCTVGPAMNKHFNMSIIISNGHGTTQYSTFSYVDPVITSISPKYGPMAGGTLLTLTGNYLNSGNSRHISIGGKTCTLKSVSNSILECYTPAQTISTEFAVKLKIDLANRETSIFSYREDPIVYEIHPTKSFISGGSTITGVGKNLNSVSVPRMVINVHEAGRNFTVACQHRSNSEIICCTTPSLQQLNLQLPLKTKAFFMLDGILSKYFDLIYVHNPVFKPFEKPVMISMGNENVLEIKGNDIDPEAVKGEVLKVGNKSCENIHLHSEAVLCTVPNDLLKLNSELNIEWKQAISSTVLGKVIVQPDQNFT
# T2: Mouse MET
# T2 construct: on transfected HEK293 cells; also called murine MET ECD-SV5-GPI
# T2 MET ECD-SV5-GPI fusion: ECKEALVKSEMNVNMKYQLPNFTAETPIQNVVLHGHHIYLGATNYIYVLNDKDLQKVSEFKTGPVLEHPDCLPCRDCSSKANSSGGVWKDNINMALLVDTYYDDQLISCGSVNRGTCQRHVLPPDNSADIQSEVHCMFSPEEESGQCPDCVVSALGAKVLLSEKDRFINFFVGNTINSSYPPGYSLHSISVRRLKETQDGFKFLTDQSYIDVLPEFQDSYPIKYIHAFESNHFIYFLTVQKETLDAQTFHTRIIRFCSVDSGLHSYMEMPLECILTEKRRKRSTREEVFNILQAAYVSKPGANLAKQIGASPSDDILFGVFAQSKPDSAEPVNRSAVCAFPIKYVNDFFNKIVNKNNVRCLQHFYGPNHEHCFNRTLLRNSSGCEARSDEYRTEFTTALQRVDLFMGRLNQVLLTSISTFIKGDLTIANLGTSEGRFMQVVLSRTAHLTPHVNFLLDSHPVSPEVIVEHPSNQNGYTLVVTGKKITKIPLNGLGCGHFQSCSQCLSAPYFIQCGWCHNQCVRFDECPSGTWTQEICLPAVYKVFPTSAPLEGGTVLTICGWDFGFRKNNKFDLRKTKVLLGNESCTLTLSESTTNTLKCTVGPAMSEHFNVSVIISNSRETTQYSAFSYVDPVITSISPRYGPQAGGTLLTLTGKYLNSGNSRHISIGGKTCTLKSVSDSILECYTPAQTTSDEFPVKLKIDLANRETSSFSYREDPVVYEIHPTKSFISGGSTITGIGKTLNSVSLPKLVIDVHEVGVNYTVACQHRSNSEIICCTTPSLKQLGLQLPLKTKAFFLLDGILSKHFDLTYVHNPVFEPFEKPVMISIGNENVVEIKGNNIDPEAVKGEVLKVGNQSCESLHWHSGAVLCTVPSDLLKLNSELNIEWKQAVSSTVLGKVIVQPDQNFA
# T3: Mouse Blade 1-5
# T3 construct: human/mouse chimera on transfected HEK293 cells; also called AA 25-430
# T3 MET ECD-SV5-GPI fusion: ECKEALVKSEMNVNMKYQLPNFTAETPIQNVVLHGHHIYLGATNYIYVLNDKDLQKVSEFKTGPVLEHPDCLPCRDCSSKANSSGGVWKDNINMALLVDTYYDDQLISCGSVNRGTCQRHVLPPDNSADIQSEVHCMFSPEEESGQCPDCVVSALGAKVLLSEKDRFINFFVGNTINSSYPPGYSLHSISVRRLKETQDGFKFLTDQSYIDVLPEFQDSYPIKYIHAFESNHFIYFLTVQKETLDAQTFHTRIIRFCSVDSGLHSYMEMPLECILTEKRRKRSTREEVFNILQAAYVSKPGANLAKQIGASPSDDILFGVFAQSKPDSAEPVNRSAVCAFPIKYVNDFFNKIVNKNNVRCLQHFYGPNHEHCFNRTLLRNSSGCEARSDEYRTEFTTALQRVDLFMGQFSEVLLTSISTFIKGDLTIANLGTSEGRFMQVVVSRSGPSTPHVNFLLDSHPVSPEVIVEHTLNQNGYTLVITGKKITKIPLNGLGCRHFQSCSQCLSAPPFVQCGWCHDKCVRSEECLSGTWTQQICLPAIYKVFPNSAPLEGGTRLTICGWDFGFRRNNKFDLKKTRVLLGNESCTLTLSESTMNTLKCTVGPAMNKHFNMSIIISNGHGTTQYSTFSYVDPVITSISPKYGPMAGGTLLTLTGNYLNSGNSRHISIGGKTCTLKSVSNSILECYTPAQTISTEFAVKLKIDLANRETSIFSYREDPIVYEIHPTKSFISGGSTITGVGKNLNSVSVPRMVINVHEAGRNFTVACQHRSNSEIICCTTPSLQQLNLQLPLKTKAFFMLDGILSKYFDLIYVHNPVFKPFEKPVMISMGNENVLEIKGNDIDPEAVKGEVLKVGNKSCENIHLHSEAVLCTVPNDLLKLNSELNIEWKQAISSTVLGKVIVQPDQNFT
# B1: humanized antibody 9006 (antibody, human IgG1, kappa, V domains shown)
# VH: QVQLVQSGSELKKPGASVKVSCKASGYTFTNFRMNWVKQAPGQGLKWMGWINTYTGEPTYVDDLKGRFVFSLDTSVSTAYLQISSLKAEDTAVYYCARKGIARAMDYWGQGTTVTVSS
# VL: DIVMTQSPDSLAVSLGERATINCKSSQSLLDSGNQKNYLAWYQQKPGQPPKLLIFGASTRESGVPDRFSGSGSGTDFTLTISSLQAEDVAVYYCQNDHSYPYTFGQGTKLEIKR
# notes: also called Hu9006; hu9006
# B2: humanized antibody 9338 (antibody, human IgG1, kappa, V domains shown)
# VH: QVQLVQSGAEVKKPGSSVKVSCKASGYTFTSYWMHWVRQAPGQGLEWMGYINPSSGHIENNQKFKDRVTITADKSTSTAYMELSSLRSEDTAVYYCARGRFAYWGQGTLVTVSS
# VL: EIVLTQSPATLSLSPGERATLSCSASSSVSSGYLYWYQQKPGQAPRLLIYSTSNLASGIPARFSGSGSGTDFTLTISSLEPEDFAVYYCHQWSSYPFTFGSGTKLEIKR
# notes: also called Hu9338; hu9338
# How the values were obtained:
# [1] = target: T4, His tagged cynomolgus MET ECD (Sinobiological) (cynomolgus); test: SPR (Bio-Rad XPR-36); antibody captured on anti-human IgG Fc surface, MET ECD 25 to 1.56 nM, 1:1 Langmuir fit
# T4 construct: extracellular domain; Bought monovalent antigen
# Description: His tagged human or cynomolgus MET ECD antigens were purchased from Sinobiological, China. […] Measurements were conducted with a plate rotation speed of 1000 rpm and sensors were regenerated and reused by brief 5 second alternations between exposure to 10 mM Glycine:HCl buffer (pH 1.5) or PBS buffer containing 1% BSA and 0.001% Tween 20 three times. For the Surface Plasmon Resonance experiments conducted on the Bio-Rad XPR-36 instrument, anti-MET antibodies were adjusted to a concentration of 0.25-0.5 μg/ml and captured on anti-human IgG Fc surfaces generated by immobilizing a monoclonal anti-human Fc antibody (Biacore, Denmark). […] The recorded binding responses were fitted to a simple Langmuir 1:1 binding model for calculation of the on-rate (kon or ka), off-rate (koff or kd) and affinity (KD) constants using double referencing.
# Mouse Blade 1-4 = target: T1, Mouse Blade 1-4; test: flow cytometry on transfected HEK293 cells;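 note: antibodies applied at 50 µg/ml, binding called specific when fluorescence exceeds the mean signal on a negative control chicken or mouse MET construct plus four SD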
# Description: (§1) Cut-off values defined as the average fluorescence signal of all antibodies tested at 50 μg/ml to the negative control chicken or mouse MET construct+four standard deviations were employed to discriminate background binding from specific binding for the domain exchange or blade exchange constructs.
# Mouse MET = target: T2, Mouse MET; test: flow cytometry on transfected HEK293 cells;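 note: antibodies applied at 50 µg/ml, binding called specific when fluorescence exceeds the mean signal on a negative control chicken or mouse MET construct plus four SD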
# Description: as §1
# Mouse Blade 1-5 = target: T3, Mouse Blade 1-5; test: flow cytometry on transfected HEK293 cells;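 note: antibodies applied at 50 µg/ml, binding called specific when fluorescence exceeds the mean signal on a negative control chicken or mouse MET construct plus four SD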
# Description: as §1
Binder,Kd [1],koff [1],kon [1],binding result (Mouse Blade 1-4),binding result (Mouse MET),binding result (Mouse Blade 1-5)
B1,0.086 nM,1.6e-05 s⁻¹,180000 M⁻¹ s⁻¹,no binding (tested: 50 µg/ml),no binding (tested: 50 µg/ml),no binding (tested: 50 µg/ml)
B2,0.074 nM,5.4e-05 s⁻¹,740000 M⁻¹ s⁻¹,no binding (tested: 50 µg/ml),no binding (tested: 50 µg/ml),no binding (tested: 50 µg/ml)
